The numbers were not newly measured in patent US6022890A, “Immunosuppressant tetracyclic triterpenes” (Merck & Co., Inc., priority 1998, dated 2000), which cites them from elsewhere.

For this data set, the target named is T1, Kv 1.3 channels (CHO cells transfected with Kv 1.3 channels) (Homo sapiens, UniProt P22001).
T1 construct: expressed in transfected cells; host or cells: CHO cells
The note with it: stated for the reference blocker that defines the efflux window.

T1 sequence (P22001 whole entry): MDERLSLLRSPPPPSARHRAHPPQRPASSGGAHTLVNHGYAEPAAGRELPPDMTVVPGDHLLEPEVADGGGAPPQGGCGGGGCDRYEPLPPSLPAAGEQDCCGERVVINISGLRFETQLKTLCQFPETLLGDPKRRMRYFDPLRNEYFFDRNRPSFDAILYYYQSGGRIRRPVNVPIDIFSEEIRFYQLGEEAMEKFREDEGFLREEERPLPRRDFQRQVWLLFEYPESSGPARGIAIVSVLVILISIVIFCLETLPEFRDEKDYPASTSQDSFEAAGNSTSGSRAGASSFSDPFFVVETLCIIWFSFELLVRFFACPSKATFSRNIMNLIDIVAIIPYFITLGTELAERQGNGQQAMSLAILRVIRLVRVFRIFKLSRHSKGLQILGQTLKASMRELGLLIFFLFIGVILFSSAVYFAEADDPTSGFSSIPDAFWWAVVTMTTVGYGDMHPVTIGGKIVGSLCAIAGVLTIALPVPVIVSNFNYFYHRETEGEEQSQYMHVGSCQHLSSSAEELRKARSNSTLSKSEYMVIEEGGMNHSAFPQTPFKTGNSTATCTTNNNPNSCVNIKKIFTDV

Consider “margatoxin (TIINVKCTSPKQCLPPCKAQFGQSAGAKCMNGKCKCYPH; UniProt P40755 1-39, looked up)”, for which the IC50 was 0.1 nM.

As a reminder, the IC50 is the point on the concentration scale where inhibition reaches its midpoint.
